Data published in patent publication US6359127B1, “MCH2, an apoptotic cysteine protease, and compositions for making and methods of using the same” (Thomas Jefferson University, priority 1995, dated 2002).

Assays:
human PARP = test: Western blot analysis of PARP cleavage after incubation with recombinant enzyme; type: biochemical; conditions: Western blot with 4C10-5 antibody
Description: In apoptotic cells, nuclear proteins such as PARP, lamins and the 70-kDa protein component of the U1 small nuclear ribonucleoprotein are cleaved specifically by an unknown ICE-like cysteine protease(s). Cleavage of human PARP at the DEVD (SEQ ID NO:9) site (amino acid 211-214) would generate a large protein product of predicted molecular mass of 89.3 kDa (amino acids 215-1014). Western blot analysis of human PARP after incubation with recombinant Mch2α, Mch2β, ICEγ or CPP32 was performed using the 4C10-5 antibody. This antibody recognizes an epitope in the 41 kDa C-terminal chymotryptic fragment of PARP. CPP32 cleaved PARP to generate a major band of ˜90 kDa and a minor band of 57 kDa. The 90 kDa band was most probably generated by cleaving the DEVD (SEQ ID NO:9) site at residue 214 of PARP. This cleavage product is believed to correspond to an 85 kDa PARP cleavage product which has been described in apoptotic cells. The 57 kDa cleavage product is probably generated by cleavage at a site C-terminal to the DEVD (SEQ ID NO:9) site. This product was not detected with the C-2-10 antibody used in a previous study. This is probably because it recognizes an epitope that is N-terminal to the epitope that is recognized by the 4C10-5 antibody used in the present study. Mch2α also cleaved PARP to generate a major product of ˜83 kDa and a minor product of ˜57 kDa similar to that obtained with CPP32. PARP was not cleaved by Mch2β or ICEγ. […] Furthermore, the deletion in Mch2β abrogates its enzymatic activity.

YVAD-AMC (SEQ ID NO:8) = test: cleavage of fluorogenic peptide YVAD-AMC by bacterial extracts expressing GST-fusion enzymes; type: biochemical; conditions: for ability to cleave the YVAD substrate: total bacterial extracts, GST-fusion proteins
Description: (§1) To determine the enzymatic activity of Mch2, CPP32 or ICE, these enzymes were expressed in E. coli as fusion proteins with glutathione S-transferase (GST). A GST-CPP32-p20 fusion protein that contains amino acids 1-175 of CPP32 and a GST nonfusion protein were used as controls. After induction with IPTG, bacterial extracts were prepared from E. coli expressing the recombinant fusion proteins. The extracts were absorbed to glutathione-Sepharose resin, washed several times and then analyzed by SDS-PAGE. The ICEγ, CPP32 and Mch2α preparations containing GST-fusion proteins ranged in size from ˜28-35 kDa. The GST nonfusion protein control migrated as a ˜27-28 kDa protein. […] Aps26 of ICEγ which corresponds to Asp 119 of ICEα is a site that is cleaved during ICE activation. Cleavage at this site would generate a GST-fusion protein with a predicted molecular mass of ˜29 kDa that might correspond to the 31 kDa band. Cleavage at Asp 3 of ICEγ, although it is not a known ICE cleavage site, could generate the 28 kDa band (lane 2). Similar to the GST-ICEγ preparation, the GST-CPP32 and GST-Mch2 preparations contain smaller than predicted GST fusion products. The GST-CPP32 fusion product migrates as a ˜29-30 kDa protein. Cleavaae at Asp9 or Asp28 of CPP32 would generate products with predicted molecular masses of ˜27.3 kDa or ˜29.4 kDa, respectively. Based on the observed size of the GST-CPP32 product, CPP32 is most probably cleaved at Asp28, although it is possible that both sites are cleaved during CPP32 autoprocessing. Unlike the GST-CPP32 which contains full length CPP32, the GST-CPP32-p20 product which contains a truncated CPP32 migrates as a ˜46 kDa protein that agreed with its predicted molecular mass. […] Therefore if CPP32 is cleaved at Asp28, CPP32 appears to be made up of two subunits of relative molecular masses of 17 kDa and 11 kDa. However, the exact Asp cleavage sites that are utilized to generate active CPP32 remains to be determined by amino acid sequencing. The GST-Mch2α preparation contains two major bands that migrate as ˜31-32 kDa and ˜34-35 kDa proteins. This is consistent with cleavage at Asp23, Asp32 or Asp40 of Mch2α. These GST-Mch2α cleavage products are larger than the GST-CPP32 product because of the presence of extra 33 amino acids in the GST-Mch2α fusion construct that are derived from the 5′ untranslated region of Mch2α. A minor band of ˜27 kDa is also present in this preparation that could be due to cleavage at a site near the C-terminus of the GST peptide itself. The majority of GST-Mch2β was expressed in E. coli in […] and was not cleaved.
After establishing that Mch2 and CPP32 can autoprocess in bacteria, their enzymatic activity were tested using two fluorogenic peptide substrates, YVAD-AMC (SEQ ID NO:8) and DEVD-AMC (SEQ ID NO:3). The YVAD (SEQ ID NO:8) […] is the ICE cleavage site in pro-IL1β and the DEVD (SEQ ID NO:9) tetrapeptide is a site present in PARP that is cleaved by an ICE-like protein during apoptosis. The enzymatic activities of Mch2α, Mch2β, CPP32 and ICEγ, in total bacterial extracts from cells expressing these enzymes as GST-fusion proteins was studied using the YVAD-AMC (SEQ ID NO:8) and DEVD-AMC (SEQ ID NO:3) tetrapeptides as substrates. […] The purified GST-fusion products or the GST control extract had no enzymatic activity with either of the substrates.

DEVD-AMC (SEQ ID NO:3) = test: cleavage of fluorogenic peptide DEVD-AMC by bacterial extracts expressing GST-fusion enzymes; type: biochemical; conditions: for ability to cleave the DEVD substrate: total bacterial extracts, GST-fusion proteins
Description: as §1
After establishing that Mch2 and CPP32 can autoprocess in bacteria, their enzymatic activity were tested using two fluorogenic peptide substrates, YVAD-AMC (SEQ ID NO:8) and DEVD-AMC (SEQ ID NO:3). […]

Sf9 cells = test: apoptosis of Sf9 cells infected with recombinant baculovirus expressing the protein; type: cell-based, insect; conditions: polyhedron promoter
Source text: To test whether expression of Mch2α has a similar apoptotic effect, Sf9 cells were infected with a recombinant baculovirus expressing Mch2α or Mch2β under the polyhedron promoter. Cells were also infected with the wild type virus and the recombinant ICE baculovirus as controls.

Row | Molecule | cleavage of PARP (human PARP) | ability to cleave the YVAD substrate (YVAD-AMC (SEQ ID NO:8)) | ability to cleave the DEVD substrate (DEVD-AMC (SEQ ID NO:3)) | characteristic signs of apoptosis (membrane blebbing, nuclear fragmentation and condensation, internucleosomal DNA cleavage) (Sf9 cells) | viability of infected cells (Sf9 cells) | activity in cleaving the YVAD substrate relative to CPP32 (YVAD-AMC (SEQ ID NO:8); ICEγ versus CPP32) | activity in cleaving the DEVD substrate relative to ICEγ or Mch2α (DEVD-AMC (SEQ ID NO:3); from initial rate of the reactions, assuming similar amount of each enzyme in extracts) [fold]
1 | Mch2β: alternatively spliced shorter Mch2 isoform, 204 amino acid ~23 kDa protein, SEQ ID NO:7 (protein) MSSASGLRRGHPAVSTVSHADADCFVCVFLSHGEGNHIYAYDAKIEIQTLTGLFKGDKCHSLVGKPKIFIIQACRGNQHDVPVIPLDVVDNQTEKLDTNITEVDAASVYTLPAGADFLMCYSVAEGYYSHRETVNGSWYIQDLCEMLGKYGSSLEFTELLTLVNRKVSQRRVDFCKDPSAIGKKQVPCFASMLTKKLHFFPKSN | not cleaved | No detectable enzymatic activity | – | – | – | – | –
2 | Mch2α: full length Mch2 isoform, 293 amino acid ~34 kDa Ced-3/ICE-like cysteine protease, SEQ ID NO:5 (protein) MSSASGLRRGHPAGGEENMTETDAFYKREMFDPAEKYKMDHRRRGIALIFNHERFFWHLTLPERRRTCADRDNLTRRFSDLGFEVKCFNDLKAEELLLKIHEVSTVSHADADCFVCVFLSHGEGNHIYAYDAKIEIQTLTGLFKGDKCHSLVGKPKIFIIQACRGNQHDVPVIPLDVVDNQTEKLDTNITEVDAASVYTLPAGADFLMCYSVAEGYYSHRETVNGSWYIQDLCEMLGKYGSSLEFTELLTLVNRKVSQRRVDFCKDPSAIGKKQVPCFASMLTKKLHFFPKSN | cleaved PARP | No detectable enzymatic activity | able to cleave | several characteristic signs of apoptosis | decrease in viability | – | –
3 | ICEγ: isoform of interleukin-1 β converting enzyme (ICE), expressed as GST-fusion protein (protein) MADKVLKEKRKLFIRSMGEAPQAVQDNPAMPTSSGSEGNVKLCSLEEAQRIWKQKSAEIYPIMDKSSRTRLALIICNEEFDSIPRRTGAEVDITGMTMLLQNLGYSVDVKKNLTASDMTTELEAFAHRPEHKTSDSTFLVFMSHGIREGICGKKHSEQVPDILQLNAIFNMLNTKNCPSLKDKPKVIIIQACRGDSPGVVWFKDSVGVSGNLSLPTTEEFEDDAIKKAHIEKDFIAFCSSTPDNVSWRHPTMGSVFIGRLIEHMQEYACSCDVEEIFRKVRFSFEQPDGRAQMPTTERVTLTRCFYLFPGH | not cleaved | able to cleave | able to cleave | – | – | about 3 fold | –
4 | ICE: mammalian interleukin-1 β converting enzyme, expressed from recombinant ICE baculovirus as control (protein) MADKVLKEKRKLFIRSMGEAPQAVQDNPAMPTSSGSEGNVKLCSLEEAQRIWKQKSAEIYPIMDKSSRTRLALIICNEEFDSIPRRTGAEVDITGMTMLLQNLGYSVDVKKNLTASDMTTELEAFAHRPEHKTSDSTFLVFMSHGIREGICGKKHSEQVPDILQLNAIFNMLNTKNCPSLKDKPKVIIIQACRGDSPGVVWFKDSVGVSGNLSLPTTEEFEDDAIKKAHIEKDFIAFCSSTPDNVSWRHPTMGSVFIGRLIEHMQEYACSCDVEEIFRKVRFSFEQPDGRAQMPTTERVTLTRCFYLFPGH | – | – | – | several characteristic signs of apoptosis | – | – | –
5 | CPP32: human Cpp32 (Mch1) apoptotic cysteine protease, expressed as GST-fusion protein (protein) MENTENSVDSKSIKNLEPKIIHGSESMDSGISLDNSYKMDYPEMGLCIIINNKNFHKSTGMTSRSGTDVDAANLRETFRNLKYEVRNKNDLTREEIVELMRDVSKEDHSKRSSFVCVLLSHGEEGIIFGTNGPVDLKKITNFFRGDRCRSLTGKPKLFIIQACRGTELDCGIETDSGVDDDMACHKIPVEADFLYAYSTAPGYYSWRNSKDGSWFIQSLCAMLKQYADKLEFMHILTRVNRKVATEFESFSFDATFHAKKQIPCIVSMLTKELYFYH | cleaved PARP | able to cleave | able to cleave | – | – | – | ~150
